Experimental data: patent US5580955A, “Fragments of neurofibromin (NF1) and method to reverse activated ras induced malignant transformation in mammalian cells” (Ludwig Institute for Cancer Research, priority 1995, dated 1996)
“Also recorded” adds a separate entry of the source.

B1: NF 266: NF1 fragment, residues 1175-1440 (protein, UniProt P21359 1175-1440, looked up, fragment)
chain: TRATFMEVLTKILQQGTEFDTLAETVLADRFERLVELVTMMGDQGELPIAMALANVVPCSQWDELARVLVTLFDSRHLLYQLLWNMFSKEVELADSMQTLFRGNSLASKIMTFCFKVYGATYLQKLLDPLLRIVITSSDWQHVSFEVDPTRLEPSESLEENQRNLLQMTEKFFHAIISSSSEFPPQLRSVCHCLYQATCHSLLNKATVKEKKENKKSVVSQRFPQNSIGAVGSAMFLRFINPAIVSPYEAGILDKKPPPRIERGLK
B2: NF357: NF1 fragment, amino acid residues 1175-1531 of human type I neurofibromin (protein, UniProt P21359 1175-1531, looked up, fragment)
chain: TRATFMEVLTKILQQGTEFDTLAETVLADRFERLVELVTMMGDQGELPIAMALANVVPCSQWDELARVLVTLFDSRHLLYQLLWNMFSKEVELADSMQTLFRGNSLASKIMTFCFKVYGATYLQKLLDPLLRIVITSSDWQHVSFEVDPTRLEPSESLEENQRNLLQMTEKFFHAIISSSSEFPPQLRSVCHCLYQATCHSLLNKATVKEKKENKKSVVSQRFPQNSIGAVGSAMFLRFINPAIVSPYEAGILDKKPPPRIERGLKLMSKILQSIANHVLFTKEEHMRPFNDFVKSNFDAARRFFLDIASDCPTSDAVNHSLSFISDGNVLALHRLLWNNQEKIGQYLSSNRDHKAV
B3: NF338: NF1 protein fragment, amino acid residues 1194 to 1531, expressed from retroviral vector pMV7 (protein)
chain: DTLAETVLADRFERLVELVTMMGDQGELPIAMALANVVPCSQWDELARVLVTLFDSRHLLYQLLWNMFSKEVELADSMQTLFRGNSLASKIMTFCFKVYGATYLQKLLDPLLRIVITSSDWQHVSFEVDPTRLEPSESLEENQRNLLQMTEKFFHAIISSSSEFPPQLRSVCHCLYQVVSQRFPQNSIGAVGSAMFLRFINPAIVSPYEAGILDKKPPPRIERGLKLMSKILQSIANHVLFTKEEHMRPFNDFVKSNFDAARRFFLDIASDCPTSDAVNHSLSFISDGNVLALHRLLWNNQEKIGQYLSSNRDHKAVGRRPFDKMATLLAYLGPPEHK
B4: NF91: NF1 fragment, amino acid residues 1441 to 1531; GST fusion in Table II, expressed from pMV7 plasmid in cells (protein, UniProt P21359 1441-1531, looked up, fragment)
chain: LMSKILQSIANHVLFTKEEHMRPFNDFVKSNFDAARRFFLDIASDCPTSDAVNHSLSFISDGNVLALHRLLWNNQEKIGQYLSSNRDHKAV
modifications: GST fusion
B5: NF 292: NF1 fragment, residues 1205-1496 (protein, UniProt P21359 1205-1496, looked up, fragment)
chain: FERLVELVTMMGDQGELPIAMALANVVPCSQWDELARVLVTLFDSRHLLYQLLWNMFSKEVELADSMQTLFRGNSLASKIMTFCFKVYGATYLQKLLDPLLRIVITSSDWQHVSFEVDPTRLEPSESLEENQRNLLQMTEKFFHAIISSSSEFPPQLRSVCHCLYQATCHSLLNKATVKEKKENKKSVVSQRFPQNSIGAVGSAMFLRFINPAIVSPYEAGILDKKPPPRIERGLKLMSKILQSIANHVLFTKEEHMRPFNDFVKSNFDAARRFFLDIASDCPTSDAVNHSL
B6: NF 342: NF1 fragment, residues 1190-1531 (protein, UniProt P21359 1190-1531, looked up, fragment)
chain: GTEFDTLAETVLADRFERLVELVTMMGDQGELPIAMALANVVPCSQWDELARVLVTLFDSRHLLYQLLWNMFSKEVELADSMQTLFRGNSLASKIMTFCFKVYGATYLQKLLDPLLRIVITSSDWQHVSFEVDPTRLEPSESLEENQRNLLQMTEKFFHAIISSSSEFPPQLRSVCHCLYQATCHSLLNKATVKEKKENKKSVVSQRFPQNSIGAVGSAMFLRFINPAIVSPYEAGILDKKPPPRIERGLKLMSKILQSIANHVLFTKEEHMRPFNDFVKSNFDAARRFFLDIASDCPTSDAVNHSLSFISDGNVLALHRLLWNNQEKIGQYLSSNRDHKAV
B7: NF 326: NF1 fragment, residues 1206-1531 (protein, UniProt P21359 1206-1531, looked up, fragment)
chain: ERLVELVTMMGDQGELPIAMALANVVPCSQWDELARVLVTLFDSRHLLYQLLWNMFSKEVELADSMQTLFRGNSLASKIMTFCFKVYGATYLQKLLDPLLRIVITSSDWQHVSFEVDPTRLEPSESLEENQRNLLQMTEKFFHAIISSSSEFPPQLRSVCHCLYQATCHSLLNKATVKEKKENKKSVVSQRFPQNSIGAVGSAMFLRFINPAIVSPYEAGILDKKPPPRIERGLKLMSKILQSIANHVLFTKEEHMRPFNDFVKSNFDAARRFFLDIASDCPTSDAVNHSLSFISDGNVLALHRLLWNNQEKIGQYLSSNRDHKAV
B8: NF 327: NF1 fragment, residues 1205-1531 (protein, UniProt P21359 1205-1531, looked up, fragment)
chain: FERLVELVTMMGDQGELPIAMALANVVPCSQWDELARVLVTLFDSRHLLYQLLWNMFSKEVELADSMQTLFRGNSLASKIMTFCFKVYGATYLQKLLDPLLRIVITSSDWQHVSFEVDPTRLEPSESLEENQRNLLQMTEKFFHAIISSSSEFPPQLRSVCHCLYQATCHSLLNKATVKEKKENKKSVVSQRFPQNSIGAVGSAMFLRFINPAIVSPYEAGILDKKPPPRIERGLKLMSKILQSIANHVLFTKEEHMRPFNDFVKSNFDAARRFFLDIASDCPTSDAVNHSLSFISDGNVLALHRLLWNNQEKIGQYLSSNRDHKAV
B9: NF 80: NF1 fragment, residues 1452-1531 (protein, UniProt P21359 1452-1531, looked up, fragment)
chain: HVLFTKEEHMRPFNDFVKSNFDAARRFFLDIASDCPTSDAVNHSLSFISDGNVLALHRLLWNNQEKIGQYLSSNRDHKAV

Key:
[1] = test system: V-HaRas transformed NIH/3T3 cells; test: soft agar colony (SAC) formation by V-HaRas transformed NIH/3T3 cells transfected with NF1 fragment plasmids; format: cell-based; details: for SAC (%), relative soft agar colony forming ability: non-transfected clone #0 = 100; for Colonies/10^3 cells (number of colonies found in soft agar): 1000 cells per plate, 37° C., three weeks; for ability to form soft agar colonies (in words): compared with non-transfected parental V-HaRas transformed cells
Protocol: The transfectants were then cloned in the presence of a neomycin analogue, i.e., G418 at 400 ug/ml. The transfectants were initially screened for viability in the G418 medium, following Maruta et al., supra., and Nur-E.-Kamal et al., supra.
After the transfectants were screened for viability, the ability of the parental clone and each surviving transfectant to form soft agar colonies (SAC) were then examined by incubating 1000 cells per plate at 37° C. for three weeks under standard culture conditions, as described in Maruta et al., supra.

c-HaRas protein = test: Ras GTPase stimulating activity: hydrolysis of [gamma-32P] GTP bound to c-HaRas protein, by GST fusion NF1 mutants; format: biochemical, murine; details: for Activation (fold), Ras GTPase activation: 20 ug/ml NF1 mutants; for Activation (fold), Ras GTPase activation / EC50, concentration required for 50% hydrolysis of GTP bound Ras: 25° C., 20 minutes
Excerpt: N- and C- terminal deletion mutants were constructed by subcloning the corresponding PCR DNA fragments into the bacterial expression vector pGEX-2TH, as described in Maruta et al., supra. FIG. 4 sets forth the DNA fragments inserted into the expression vector. The number following NF of each mutant indicates the total amino acid residues included. The DNA fragments inserted include the DNA for human type I NF357, human type II NF1-GRD (amino acid residues 1355 to 1531 in addition to the insert of 21 amino acids) and murine c-HaRas (residues 1-189). The type II-specific insert of 21 amino acids is indicated by the number 21 above a triangle following codon 1371. This 21 amino acid insert is set forth in SEQ ID NO: 2. The solid rectangle indicates the GAP active center of 56 amino acids, whereas the shaded rectangle indicates a supporting domain of 22 amino acids.
The expression vectors were transfected into E.coli and the protein expressed as GST fusion proteins. The fusion proteins were thereafter purified from E.coli as glutathione S-transfeRase fusion proteins and affinity-purified on a glutathione (GSH)-agarose column, as described in Maruta, et al., supra.
The purified proteins were then screened for Ras GTPase stimulating activity. The assay was carried out for each of the NF357 deletion mutants.
The hydrolysis of [gamma-^32 P] GTP bound to c-HaRas protein was determined by incubating with bound protein at 25° C. for 20 minutes in the presence or absence of each NF1 mutant preparation in 100 ul of a buffer containing 50 mMTris-HCl, pH 7.5, 15 mMMgCl2, 2.5 mM EDTA, 3 mM ATP, 1 mM dithiothreitol (DTT) and 0.5 mg/ml bovine serum albumin (BSA), then precipitating the unhydrolyzed [gamma-32P] GTP with charcoal, and finally measuring the radioactivity of the [gamma-32P] inorganic phosphate in the supernatant, as described previously, Maruta et al., supra. Protein concentrations were determined by the Bradford method with BSA as a standard.

[2] = test system: V-HaRas transformed NIH/3T3 cells; test: morphology of V-HaRas transformed NIH/3T3 cells overexpressing NF1 fragments; format: cell-based; details: liquid culture, compared with parental V-HaRas transformed cells
[3] = clone #8, relatively low (L) steady-state mRNA level
[4] = clones with relatively high (H) mRNA level
[5] = clones with relatively high (H) steady-state mRNA level

Row | Molecule | Ras GTPase stimulation (in words) (c-HaRas protein) | Activation (fold), Ras GTPase activation (c-HaRas protein) [fold] | EC50, concentration required for 50% hydrolysis of GTP bound Ras (c-HaRas protein) [µg/mL] | further results
1 | NF56: NF1 fragment, amino acid residues 1441 to 1496 (RPFNDFVKSNFDAARRFFLDIASDCPTSDAVNHSLSFISDGNVLALHRLLWNNQEK) | no longer able to stimulate Ras GTPase activity; also recorded: cannot stimulate; also recorded: does not stimulate GTPase activity; also recorded: not capable of GTPase activation | 0 |  | reversion of activated Ras induced transformation (in words) ([1]; expression of the fragment in transformed cells): leads to reversion of activated Ras induced transformation; also recorded: capable of reversing Ras transformation
2 | B1 |  | 0 |  | 
3 | B2 |  | 14 | 0.50 | GTPase activity, times more active than NF91 (c-HaRas protein): twenty
4 | B3 |  |  |  | SAC (%), relative soft agar colony forming ability ([1]; clone #8, relatively low (L) mRNA level): 5%; average size of the soft agar colony [1, 3]: medium; Colonies/10^3 cells (number of colonies found in soft agar) [1, 3]: 37 Colonies/10^3 cells; SAC (%), relative soft agar colony forming ability [1, 4]: 0.4%; Colonies/10^3 cells (number of colonies found in soft agar) [1, 5]: 3 Colonies/10^3 cells; ability to form soft agar colonies (in words) [1]: greatly reduced; cell morphology [2]: differed significantly
5 | B4 | still stimulated Ras GTPase activity; also recorded: still able to stimulate normal Ras GTPase activity | 10 | 10 | SAC (%), relative soft agar colony forming ability [1, 4]: 0%; Colonies/10^3 cells (number of colonies found in soft agar) [1, 5]: 0 Colonies/10^3 cells; ability to form soft agar colonies (in words) [1]: no longer able to form any soft agar colonies; cell morphology [2]: morphologically flat; cell morphology ([2]; listed as NF91 (Sense)): Flat; efficiency of Ras GTPase stimulation, times less efficient compared to NF342 / NF357 (c-HaRas protein): twenty
6 | B5 | stimulate normal Ras GTPase activity | 11 | 7.5 | 
7 | B6 |  | 14 | 0.52 | 
8 | B7 |  | 11 | 1.5 | 
9 | B8 |  | 14 | 0.40 | 
10 | B9 |  | 0 |  | 
